In patent US11034757B2, “Combination therapies using agents that target tumor-associated stroma or tumor cells and tumor vasculature” (BIOMED VALLEY DISCOVERIES, INC., priority 2014, dated 2021):

Tests used:
UACC melanoma cells = assay: TEM8 antibody efficacy in UACC melanoma model; assay type: in vivo, mouse; settings: 15 mg/kg, 3 times per week for 3-4 weeks; start at 50 mm^3
Procedure: UACC melanoma cells were cultured and injected subcutaneously into mice. Treatment was initiated with a tumor volume of 50 mm^3, and treatment groups consisted of one of four TEM8 antibodies (M825, M830, M863, and M822), each dosed at 15 mg/kg, 3 times per week for 3-4 weeks.

[1] = system: H460 non-small cell lung carcinoma xenograft; assay: M830 in the H460 non-small cell lung carcinoma xenograft model; assay type: in vivo, mouse; settings: combination partner Paclitaxel
Procedure: Tumor cells were cultured in RPMI-1640 medium supplemented with 10% fetal bovine serum, 2 mM glutamine, 100 units/mL penicillin G sodium, 100 μg/mL streptomycin sulfate, and 25 μg/mL gentamicin. The tumor cells were grown in tissue culture flasks in a humidified incubator at 37° C., in an atmosphere of 5% CO2 and 95% air.
Criteria for Regression Responses
Animals were monitored for regression responses.
The statistical tests were not adjusted for multiple comparisons.
Cultured H460 cells were harvested during exponential growth and resuspended in phosphate buffered saline at a concentration of 1×10^8 cells/mL. 1.0×10^7 tumor cells were injected subcutaneously into the flank of athymic nude mice. Animals were euthanized when tumors reached the pre-determined volume endpoint of 2000 mm^3 or on the final day (Day 88), whichever came first. […] Each treatment produced a significant survival difference versus controls (P<0.01). The median TTE for controls was 22.8 days, establishing a maximum possible TGD of 65.2 days (286%) for the 88-day study.

[2] = system: MC38 colon carcinoma liver metastasis; assay: M830 in MC38 colon carcinoma liver metastasis model; assay type: in vivo, C57BL/6 mice
Excerpt: C57BL/6 mice were challenged with MC38 colon carcinoma liver metastasis by intrasplenic injections of cultured cells.

B1: M830: anti-TEM8 monoclonal antibody (hIgG1); VH SEQ ID NO:5, VL SEQ ID NO:6 (antibody, V domains shown)
VH: EVQLVESGGGVVQPGRSVRLSCAASGFTFSTYTMHWVRQAPGKGLEWVAIISNDGSNKYYADPVRGRFTISRDNSKNTLYLQMNSLRAEDTAVYYCVRGSSWYRGNWFDPWGQGTLVTVSS
VL: DIQMTQSPSSLSASVGDRVTIACRASQTISRYLNWYQQKPGKAPKLLIYAASSLQSGVSSRFSGSGSGTEFTLTISSLQPEDFATYFCQQTYSPPITFGQGTRLEIKR
modifications: TEM830 mAb VH; TEM830 mAb VL
- effect on tumor growth in the UACC melanoma model (UACC melanoma cells): effective at slowing tumor growth
- regression (at Day 21, vs. vehicle column) [1]: (−61%
- effect on survival ([2]; P=0.0001): significantly improved the survival
- median survival ([2]; vehicle 11 days): 17 days
